Experimental data taken from article PMC4882581, “Characterisation of assembly and ubiquitylation by the RBCC motif of Trim5α” (Scientific Reports, 2016).

Columns and labels:
[1] = target: the molecule itself; test: AUC; multi-speed sedimentation equilibrium; monomer to trimer; three concentrations (0.125, 0.25, 0.5 mg/ml); 14,000, 18,000 and 22,000 rpm; 20 °C; 10 mM Tris/HCl pH 7.8, 150 mM NaCl; fit in SEDPHAT
[2] = target: the molecule itself; test: AUC; sedimentation velocity, c(S) analysis, and isotherm of the weight-averaged S fit to a monomer-trimer model (monomer to trimer, RhT5 1–261dCC); 20 °C; 10 mM Tris/HCl pH 7.8, 150 mM NaCl; 50 krpm (RhT5 94–141, RhT5 88–261dCC) or 38 krpm (RhT5 1–261dCC)

B1: RhT5 88–261dCC (wild type) (domain or fragment, Rhesus macaque)
chain: PEEGQKVDHCARHGEKLLLFCQEDSKVICWLCERSQEHRGHHTFLMEEVAQEYHVKLQTALEMLRQKGGDPYMRELISELEHRLQGSMMDLLQGVDGIIKRIEN
notes: Trim5α, Rhesus macaque, Bbox-CC, residues Pro88-Lys154; Trim5α, Rhesus macaque, CC-L2, residues Tyr229-Asn261; In a monomer-trimer equilibrium; Vector pET47b or pET49b; IMAC purification, so the His-tag is surmised; also called RhT5 88–216dCC (as printed once); source: E. coli BL21(DE3), purified (IMAC, 3C cleavage, anion exchange, SEC); not shown: His-tag, N-terminal, cleaved
stoichiometry N [1]: 3

B2: RhT5 94–141 (Trim5α Bbox domain alone, residues 94–141) (domain or fragment, Rhesus macaque, UniProt Q0PF16 94-141, looked up)
chain: VDHCARHGEKLLLFCQEDSKVICWLCERSQEHRGHHTFLMEEVAQEYH
notes: Trim5α, Rhesus macaque, Bbox domain, residues 94–141; Cloned into pET47b (N-terminal His-tag) or pET49b (N-terminal GST-tag); purified by IMAC, so the His-tag vector is surmised; also called RhT5α 94–141; Bbox only construct; source: E. coli BL21(DE3), purified (IMAC, 3C cleavage, anion exchange, SEC); not shown: His-tag, N-terminal, cleaved
stoichiometry N [2]: 2

B3: RhT5 1–261dCC (RhT5 1–261Δ155–228), wild type (domain or fragment, Rhesus macaque)
chain: MASGILLNVKEEVTCPICLELLTEPLSLHCGHSFCQACITANHKKSMLYKEGERSCPVCRISYQPENIQPNRHVANIVEKLREVKLSPEEGQKVDHCARHGEKLLLFCQEDSKVICWLCERSQEHRGHHTFLMEEVAQEYHVKLQTALEMLRQKGGDPYMRELISELEHRLQGSMMDLLQGVDGIIKRIEN
notes: Trim5α, Rhesus macaque, RING, L1, Bbox and start of the coiled-coil, residues 1–154; In a monomer-trimer equilibrium (trimer mass printed 67.8 kDa); also called Wt; source: expressed in LB broth with IPTG; purified (amylose resin, on column 3C protease cleavage, anion exchange); not shown: MBP, C-terminal, cleaved
stoichiometry N [2]: 3
